The labels stand for the following.
B1: P1C4-h2-IgG1 (antibody)
heavy: not shown
light: EIVLTQSPATLSLSPGERATLSCRASQSVSSSYLHWYQQKPGQAPRLLIYSTSNLASGIPARFSGSGSGTDFTLTISRLEPEDFAVYYCHQYHRSPPTFGQGTKVEIKRTVAAPSVFIFPPSDEQLKSGTASVVCLLNNFYPREAKVQWKVDNALQSGNSQESVTEQDSKDSTYSLSSTLTLSKADYEKHKVYACEVTHQGLSSPVTKSFNRGEC
notes: also called P1C4-H2 (YE); P1C4-H2 (YE)-IgG
B2: P1C4-h4-IgG1 (antibody)
heavy: not shown
light: B1 light
notes: also called P1C4-H4 (YENG); P1C4-H4 (YENG)-IgG
B3: RY-HL-LC-A12 FACS4 (IgG4 S228P) (antibody, V domains shown)
VH: QVQLVQSGAEVKKPGSSVKVSCKASGYEFSYYWMNWVRQAPGQGLEWMGQIYPGDGETKYAQKFQGRVTITADKSTSTAYMELSSLRSEDTAVYYCARSHGNYLPYWGQGTLVTVSS
VL: EIVLTQSPATLSLSPGERATLSCRASQSVSSRYLHWYQQKPGQAPRLLIYGTSNLASGIPARFSGSGSGTDFTLTISRLEPEDFAVYYCHQYSRSPPTFGQGTKVEIKR
B4: RY-HL-LC-C12 FACS4 (IgG4 S228P) (antibody, V domains shown)
VH: B3 VH
VL: B3 VL with G51S, N54R, S93H
B5: RY-LC-A10 FACS5 (IgG4 S228P) (antibody, V domains shown)
VH: B3 VH
VL: B3 VL with G51S, L55R, H90Q, S93H
B6: PA2LR3-P6G7 (chimeric) (antibody, human IgG1, kappa, V domains shown)
VH: EVQLQQSGAELVRPGSSVKISCKASGFAFSNYWMNWVKQRPGQGLEWIGQIYPGDGDTNFNGKFKGRAILTADISSNTAYMQLSSLTSEDSAVYFCARSHGNYFPYWGQGTLVTVSA
VL: DIVLTQSPAIMSASLGERVTMTCTASSSVSSSYLHWYQQKPGSSPKLWIYSTSNLASGVPARFSGSGSGTSYSLTISSMEAEDAATYYCHQHHRSPPTFGAGTKLELKR
B7: PA2LR3-P4B1 (chimeric) (antibody, human IgG1, kappa, V domains shown)
VH: B6 VH
VL: B6 VL with D1Q, H92Y, P97L
B8: PA2LR3-P6B12 (chimeric) (antibody, human IgG1, kappa, V domains shown)
VH: B6 VH with F27Y, N31Y, F60Y, R67K, I69T, I74K, N77S, P105A
VL: B6 VL with D1Q, H92Y, P97L, T98A
B9: PA2LR3-P2D3 (chimeric) (antibody, human IgG1, kappa, V domains shown)
VH: B6 VH with F27Y, N31Y, F60Y, R67K, I69T, I74K, N77S, N102S, P105A
VL: DIELAQSPASLAVSLGQRATISCRASESVDSYGNSFMHWYQQKPGQPPKLLIYLASNLESGVPARFSGSGSRADFTLTIDPVEADDAATYYCLQYASSPPTFGAGTKLEIKR
B10: PA2R3-P1F1 (chimeric) (antibody, V domains shown)
VH: EVQLQQSGAELMKPGASVKISCKATGYTFSSYWIEWVKQRPGHGLEWIGEILPGSGSTNYNEKFKGKATFTADTSSNTAYMQLSSLTSEDSAVYYCARGAWLLSYWYFDVWGAGTSVTVSS
VL: DIQMMQSTSSLSASLGDRVTISCSASQGISNYLNWYQQKPDGTVKLLIYYTSSLHSGVPSRFSGSGSGTQFSLKINSLQPEDFGSYYCQHHYGTPYTFGGGTKLELKR
B11: PA2LR3-P4C6 (chimeric) (antibody, V domains shown)
VH: B6 VH with F27Y, N31Y, F60Y, R67K, I69T, I74K, N77S
VL: B6 VL with L4I, M11V, H90Q, H92W, H93S, R94S, S95Y, P97L, L107I
B12: PA2LR3-P3B10 (chimeric) (antibody, V domains shown)
VH: B6 VH with F27Y, N31Y, F60Y, R67K, I69T, I74K, N77S
VL: B6 VL with L4I, M11V, H90Q, H92W, H93S, R94S, S95Y, P97L, L107I
B13: PA2LR3-P2E5 (chimeric) (antibody, V domains shown)
VH: EVQLQQSGAELVRPGSSVKISCKASGYAFRDYWMNWVKQRPGQGLEWIGQIYPGDGATNYIGKFKGKATLTADKSSSTAYMQLSSLTSEDSAVYFCARSHGNYFPYWGHGTLVTVSA
VL: B6 VL with D1Q, H90Q, H92W, H93S, R94S, S95Y, P97L
B14: PA2LR3-P1H4 (chimeric) (antibody, V domains shown)
VH: B13 VH with A28V, R30G, D31N, A57D, I61N, H109Q
VL: B6 VL with D1Q, H90Q, H92W, H93S, R94S, S95Y, P97L
B15: PA2LR3-P4G10 (chimeric) (antibody, V domains shown)
VH: B13 VH with S7F, R30S, D31Y, A57D, I61N, P105A, H109Q
VL: B6 VL with H90Q, H92W, H93S, R94S, S95N, P97L
B16: PA2LR3-P2B8 (chimeric) (antibody, V domains shown)
VH: B13 VH with R30S, D31Y, A57D, I61N, P105A, H109Q
VL: B6 VL with L4M, V29I, H92Y, P97L, T98A
B17: PA2LR3-P1G6 (chimeric) (antibody, V domains shown)
VH: B13 VH with R30S, D31Y, A57D, I61N, A72V, P105A, H109Q
VL: B6 VL with T5S, S78R, H90Q, H92W, H93S, R94S, S95Y, P97L
B18: PA2LR3-P3B8 (chimeric) (antibody, V domains shown)
VH: B6 VH
VL: B6 VL with L4M, S51G, A61V, H90Q, H92W, H93S, R94S, S95Y, P97L

Changes are numbered by the printed parent chain. Names may count otherwise. A value given as a limit tells only on which side of the number the result lay.

T3 sequence (P21554 whole entry): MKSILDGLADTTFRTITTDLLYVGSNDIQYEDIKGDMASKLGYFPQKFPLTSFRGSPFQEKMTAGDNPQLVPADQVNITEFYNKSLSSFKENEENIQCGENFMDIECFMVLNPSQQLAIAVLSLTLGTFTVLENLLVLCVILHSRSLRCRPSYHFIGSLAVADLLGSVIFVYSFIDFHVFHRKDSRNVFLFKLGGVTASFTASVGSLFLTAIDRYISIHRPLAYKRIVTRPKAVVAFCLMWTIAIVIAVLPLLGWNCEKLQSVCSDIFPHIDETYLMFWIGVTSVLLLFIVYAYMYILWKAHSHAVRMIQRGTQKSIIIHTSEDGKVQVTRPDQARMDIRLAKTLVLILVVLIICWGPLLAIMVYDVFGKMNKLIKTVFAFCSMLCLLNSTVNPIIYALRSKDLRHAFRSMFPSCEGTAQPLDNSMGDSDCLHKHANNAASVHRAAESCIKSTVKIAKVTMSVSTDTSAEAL
T2 sequence (P21554 whole entry): as above

For one experiment, the target named is T1, human CB2 (human, UniProt P34972 1-360).
T1 construct: whole, on cells; also called TRexCHO Human CB2
T1 sequence (P34972 whole entry): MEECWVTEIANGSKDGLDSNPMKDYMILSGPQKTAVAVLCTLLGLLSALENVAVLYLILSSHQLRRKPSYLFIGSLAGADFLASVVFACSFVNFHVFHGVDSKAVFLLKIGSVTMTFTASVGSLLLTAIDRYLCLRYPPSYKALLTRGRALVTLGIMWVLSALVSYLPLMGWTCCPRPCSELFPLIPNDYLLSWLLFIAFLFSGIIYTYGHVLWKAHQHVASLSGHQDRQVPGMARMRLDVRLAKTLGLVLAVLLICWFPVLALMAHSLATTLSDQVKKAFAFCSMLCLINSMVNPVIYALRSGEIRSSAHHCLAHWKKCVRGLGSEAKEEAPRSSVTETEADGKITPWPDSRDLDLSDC
The experiment can be described thus: flow cytometry on TRex-CHO human CB2 cells, middle panel. As to the method:
(§1) After being washed with 200 μl of FACS buffer twice, cells were incubated with PE conjugated anti-human secondary antibody (Southern Biotech) for 30 minutes on ice. Cells were washed with 200 μl of FACS buffer twice and transferred to BD Falcon 5 ml tube and analyzed by flow cytometry (BD FACScalibur).
Regarding B1, the binding result was “no binding (tested: about 300 nM (last point))”.
Take B2: the binding result is “no binding (tested: about 300 nM (last point))”.

Another experiment has as its target T2, native full length human CB1 receptor (cannabinoid 1 receptor) (human, UniProt P21554 1-472).
T2 construct: whole, on cells; also called A156; Native human CB1 TRex CHO A156
The experiment can be described thus: flow cytometry, TRex-CHO full length native human CB1 cells; Exp 2. As to the method: (§2) After being washed with 200 μL of FACS buffer twice, cells were incubated with secondary antibody for 30 minutes on ice. Cells were washed with 200 μL of FACS buffer twice and transferred to BD Falcon 5 mL tube and analyzed by FACS. Data analysis and measurement of binding affinity (KD) was performed using GraphPad Prism software.
As to B3, the equilibrium dissociation constant (Kd) worked out at 9.19 nM.
As for B4, binding was characterised by a dissociation constant (Kd) of 13.9 nM.
Still for that read-out and setting: with B5 the figure was 12.4 nM.

The next experiment concerns the target T2, native full length human CB1 receptor …. Kind of experiment: cell-based or functional assay.
B6: the “EC50, cAMP agonist functional assay” value is greater than 300 nM.
Consider B7, for which the “EC50, cAMP agonist functional assay” value is greater than 300 nM.
With B8, the “EC50, cAMP assay in the presence of CP55940” value was roughly 1000 nM.
With B9, the “EC50, cAMP agonist functional assay” value is greater than 300 nM.

The next experiment shares this target. The experiment can be described thus: flow cytometry, TRex-CHO full length native human CB1 cells; mean. The protocol: as §2
For B3, the Kd was 10.3 nM.
For the molecule B4, the Kd came out at 14.1 nM.
Consider B5, for which the Kd turned out to be 12.4 nM.

Another experiment concerns the target T3, A139 iCAPS (CB1 with ICL3 native sequence replaced with BRIL) (human, UniProt P21554 99-414).
T3 construct: The insert stands inside the chain in place of ICL3
Kind of experiment: ELISA, purified IgG on A139 CB1 iCAPS. As to the method: (§3) Purified IgG was tested for binding to purified CB1 receptor (CB1 Conformation Antigen Presenting System (iCAPS)) by ELISA. Non-biotinylated antigens (e.g. empty iCAPS) were coated directly on Maxisorp plates. The primary antibodies were purified IgGs with 1:3 serial dilutions, incubated on the plate for 1 hour. After 3 rounds of washing with PBST, secondary antibodies HRP goat anti-mouse IgG (Abmart) or HRP goat anti-human IgG (Sigma), depending on the species of the IgGs were added and incubated for another hour. The plates were washed three times with PBST, then developed with TMB (Biopanda). HCl was added to the plates to stop the reaction. Absorbance at 450 nm was read on Emax precision microplate reader (Molecular Devices).
B10: the EC50 is 1.1 nM.
On the same count and under the same terms, with B7 the figure was 1.41 nM; with B11, 0.4 nM.
B12 showed an EC50 of 0.78 nM.
Molecule B9 displayed a half-maximal effective concentration (EC50) of 2.6 nM. This EC50 lies about 3.3-fold higher than the previous one.
With B13, the response was half-maximal at 3.2 nM (EC50).
In the case of B14, the response was half-maximal at 33.5 nM (EC50).
Turning to B15, the EC50 was 1.35 nM.
In turn, B16 showed an EC50 of 1.8 nM.
Regarding B17, a half-maximal response (EC50) required 35 nM.

The target of a further experiment is T4, mouse CB1 (mouse, UniProt P47746 1-473).
T4 construct: whole, on cells; also called TRexCHO Mouse CB1
T4 sequence (P47746 whole entry): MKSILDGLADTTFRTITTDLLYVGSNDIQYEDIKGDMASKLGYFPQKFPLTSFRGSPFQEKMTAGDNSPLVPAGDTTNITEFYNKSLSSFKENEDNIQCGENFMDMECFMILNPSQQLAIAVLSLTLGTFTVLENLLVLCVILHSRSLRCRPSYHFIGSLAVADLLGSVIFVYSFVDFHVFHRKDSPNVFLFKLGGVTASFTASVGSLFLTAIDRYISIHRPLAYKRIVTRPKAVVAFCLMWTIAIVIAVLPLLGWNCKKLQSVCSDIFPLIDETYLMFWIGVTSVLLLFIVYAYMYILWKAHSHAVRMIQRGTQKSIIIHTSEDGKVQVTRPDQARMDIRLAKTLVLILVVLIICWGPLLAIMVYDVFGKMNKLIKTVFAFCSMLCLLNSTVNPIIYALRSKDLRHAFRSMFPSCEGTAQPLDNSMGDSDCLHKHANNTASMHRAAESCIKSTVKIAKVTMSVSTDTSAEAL
Kind of experiment: flow cytometry on TRex-CHO mouse CB1 cells, lower panel. The protocol:
as §1
On to B1, for which the binding result is on record as “no binding (tested: about 300 nM (last point))”.
Regarding B2, the binding result is recorded as “no binding (tested: about 300 nM (last point))”.

The target of a further experiment is T2, native full length human CB1 receptor …. The experiment can be described thus: cell-based or functional assay. The source holds these as a separate data set.
Regarding B3, the “Exp 1 IC50 (nM), cAMP antagonist assay” value was found to be 48 nM; the “Exp 2 IC50 (nM), cAMP antagonist assay” value came out at 33.9 nM; the “Exp 3 IC50 (nM), cAMP antagonist assay” value was found to be 42.4 nM.
Take B4: the “Exp 1 IC50 (nM), cAMP antagonist assay” value is 76.8 nM; the “Exp 2 IC50 (nM), cAMP antagonist assay” value was 52.5 nM; the “Exp 3 IC50 (nM), cAMP antagonist assay” value was 43.1 nM.
On to B5, for which the “Exp 1 IC50 (nM), cAMP antagonist assay” value was found to be 120 nM; the “Exp 2 IC50 (nM), cAMP antagonist assay” value was 62.6 nM; the “Exp 3 IC50 (nM), cAMP antagonist assay” value came out at 48.1 nM.

Another experiment has the same target. Kind of experiment: flow cytometry, TRex-CHO full length native human CB1 cells; Exp 1. As to the method: as §2
Molecule B3 gave a Kd of 11.5 nM.
The molecule B4 registered a dissociation constant (Kd) of 14.4 nM.

In a further experiment the target is T5, A138 iCAPS (CB1 with ICL3 native sequence replaced with protein 1 sequence) (human, UniProt P21554 99-414).
T5 construct: The insert stands inside the chain in place of ICL3
T5 sequence (P21554 whole entry): as the sequence (P21554 whole entry) above
Kind of experiment: ELISA, purified IgG on A138 CB1 iCAPS. The protocol:
as §3
Molecule B10 gave an EC50 of 1.3 nM.
The molecule B7 showed an EC50 of 1.28 nM.
In turn, B11 showed an EC50 of 0.4 nM.
As for B12, it took 1.4 nM to reach a half-maximal effect (EC50).
For the molecule B9, the response was half-maximal at 4.9 nM (EC50).
With B18, the EC50 came out at 71 nM.
The same measure, in the same setting: the figure for B13 is 10 nM.
Consider B14, for which it took 21 nM to reach a half-maximal effect (EC50).
Take B15: the concentration for a half-maximal effect (EC50) worked out at 1.19 nM. Against the preceding molecule, the EC50 is about 18-fold lower.
For B16, the EC50 worked out at 6.7 nM.
In turn, B17 came in with a concentration giving a half-maximal response (EC50) of 81 nM. Compared with the last molecule, the EC50 is about 12-fold higher.
